Tests used:
[1] = tested on: G-CSFR/gp130 chimera proteins; assay: G-CSF stimulation of G-CSFR/gp130 chimera proteins in F11 cells, cell mortality by Trypan blue exclusion; type: cell-based, human; conditions: 100 nM
Description: (§1) B) F11 cells were transfected with 0.5 μg of the pcDNA3 vector or pcDNA3-APP in association with 0.5 μg of the pEFBos vector or the pEFBos vectors encoding the extracellular domain of the human G-CSF receptor fused to the full transmembrane domain and a C-terminally truncated intracytoplasmic domain of gp130 (named “G-CSFR/gp130”). G-CSFR/gp130 (277) contains the full intracytoplasmic domain of gp130 corresponding to amino acids 1-277, while G-CSFR/gp130 (25), (68), and (133) contain the intracytoplasmic domains corresponding to amino acids 1-25, 1-68, and 1-133, respectively. At 24 hr after transfection, the cells were added with indicated amounts of human G-CSF. Cell mortality was determined by Trypan blue exclusion assay at 72 hr after transfection. The results of immunoblot analysis of the expression of […] are shown in photos.
(§2) C) Instead of the pcDNA3-V6421-APP vector, pcDNA3-K595 N/M596L-APP (NL-APP), M146L-PS1 and N141-I-PS2 vectors were used to do the same experiments as in FIG. 2A. The results of immunoblot analysis of the expression of NL-APP, M146L-PS1 and N141-I-PS2 are shown in photos.
(§3) D) F11 cells were transfected with 0.5 μg of the pEFBos vector or pEF-G85R-SOD1 in association with 0.5 μg of the pEFBos vector or each pEFBos vector encoding G-CSFR/gp130 (277) or G-CSFR/gp130 (25). At 24 hr after transfection, the cells were added with indicated amounts of human G-CSF. Cell mortality was determined by Trypan blue exclusion assay at 72 hr after transfection. The results of the expression of G85R-SOD1, which were confirmed by the immunoblot analysis, are shown in photos.
(§4) Neurohybrid F11 cells and pcDNA3 vectors encoding V642I-APP, K595N/M596L-APP (NL-APP), M146L-PS1, and N141I-PS2 cDNA were prepared as already described (Hashimoto et al, 2000, 2001a, 2003). pCAG-human gp130 and pCAG-human gp130 ED (the extracellular domain of human gp130) were prepared as described (Kumanogoh et al., 1997). pcDNA3 vectors encoding the extracellular domain of the G-CSF receptor fused to the full-length transmembrane domain and various portions of the intracellular domains of human gp130, were prepared as described (Fukada et al, 1996). The intracellular domain of gp130 was C-terminally truncated. A chimera protein named G-277 contained a 277 amino acid-long full intracellular domain of gp130 (SEQ ID NO:35), while G-195, G-133, G-68, and G-25 contained the amino acids 1-195 (SEQ ID NO:36), 1-133 (SEQ ID NO:37), 1-68 (SEQ ID NO:38), and 1-25 (SEQ ID NO:39) intracellular portions, respectively. C-terminally myc-tagged human WSX-1 and myc-tagged mouse CREME9 cDNAs were amplified from human and mouse embryo cDNA (BioChain) by PCR using sets of sense primers and antisense primers: 5′-[…]-3′ (SEQ ID NO:3) and 5′-[…]-3′ (SEQ ID NO:4) for human WSX-1; 5′-[…]-3′ (SEQ ID NO:5); and 5′-[…]-3′ (SEQ ID NO:6) for mouse CREME9. Plasmids encoding C-terminally V5-tagged human CNTF-R (V %-CNTF-R) and rat IL-6R (pUCM18-rat IL-6R) were purchased from Invitrogen and American Culture Collection, respectively. A pEFBos vector comprising familial ALS (FALS) gene G85R-SOD1 was kindly provided by Dr. Shoji Tsuji. Cosmid of human wild […] was constructed by inserting a full-length gp130 into a SwaI site of pAxCAwt (TaKaRa).
(§5) The transfection procedures were as described (Hashimoto et al, 2000, 2001a, 2003). F11 cells, seeded at 7×10^4/well in 6-well dishes, were transfected with indicated vectors. Transfection efficiency in these protocols has been determined to be invariably around 70%. At 72 hrs after transfection, the Trypan blue exclusion assay and LDH assay were performed as a cell-death assay and the WST-8 assay was performed as cell-viability assays (Hashimoto et al, 2000, 2001a b, 2003). HN was added to the culture medium usually at 5 hrs after transfection, but in some cases at 24 hrs after transfection.

[2] = molecular target: T1, G-CSFR/gp130 chimera proteins (Homo sapiens, UniProt P40189+Q99062); assay: as above; type: cell-based; conditions: 100 nM; G-277 expressed
T1 construct: the extracellular domain of the human G-CSF receptor fused to the full transmembrane domain; expressed in transfected cells; host or cells: F11 cells
T1 sequence (Q99062+P40189 with tags, fused parts or gaps): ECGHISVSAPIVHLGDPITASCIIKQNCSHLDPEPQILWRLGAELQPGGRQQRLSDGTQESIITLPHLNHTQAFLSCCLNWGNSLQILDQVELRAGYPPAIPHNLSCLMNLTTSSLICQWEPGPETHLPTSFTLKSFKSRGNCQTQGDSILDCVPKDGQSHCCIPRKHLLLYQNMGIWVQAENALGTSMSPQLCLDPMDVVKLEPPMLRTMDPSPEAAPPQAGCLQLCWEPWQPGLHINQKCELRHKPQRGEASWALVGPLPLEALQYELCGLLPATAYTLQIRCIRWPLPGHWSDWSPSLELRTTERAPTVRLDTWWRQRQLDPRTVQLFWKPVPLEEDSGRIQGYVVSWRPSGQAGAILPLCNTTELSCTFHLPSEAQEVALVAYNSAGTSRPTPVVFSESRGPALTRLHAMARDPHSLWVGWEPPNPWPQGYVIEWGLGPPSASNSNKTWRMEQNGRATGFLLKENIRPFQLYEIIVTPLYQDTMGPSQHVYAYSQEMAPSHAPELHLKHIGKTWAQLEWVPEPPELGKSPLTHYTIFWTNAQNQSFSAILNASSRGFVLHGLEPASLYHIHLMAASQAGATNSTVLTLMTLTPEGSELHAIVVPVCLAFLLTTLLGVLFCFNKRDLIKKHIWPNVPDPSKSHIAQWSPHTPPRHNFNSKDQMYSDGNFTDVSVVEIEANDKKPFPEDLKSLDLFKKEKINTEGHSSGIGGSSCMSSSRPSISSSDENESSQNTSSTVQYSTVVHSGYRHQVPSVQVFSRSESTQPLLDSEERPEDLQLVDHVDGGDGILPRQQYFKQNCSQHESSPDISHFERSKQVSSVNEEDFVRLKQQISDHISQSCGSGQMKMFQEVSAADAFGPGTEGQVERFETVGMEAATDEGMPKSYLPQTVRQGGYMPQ
Description: as §1, §2, §3, §4, §5

B1: G-CSF: human G-CSF, ligand stimulating G-CSFR/gp130 chimera proteins (protein, UniProt P09919 31-207, looked up)
Granulocyte …: TPLGPASSLPQSFLLKCLEQVRKIQGDGAALQEKLVSECATYKLCHPEELVLLGHSLGIPWAPLSSCPSQALQLAGCLSQLHSGLFLYQGLLQALEGISPELGPTLDTLQLDVADFATTIWQQMEELGMAPALQPTQGAMPAFASAFQRRAGGVLVASHLQSFLEVSYRVLRHLAQP
prevention of neuronal cell death induced by mutant Cu/Zn-superoxide dismutase (G85R-SOD1) [1]: did not prevent
prevention of neuronal cell death induced by V642I-APP ([1]; G-25 or G-68 expressed): did not prevent
prevention of NL-APP-, M146L-PS1-, N141I-PS2-mediated neuronal cell death [2]: prevented
prevention of neuronal cell death induced by V642I-APP [2]: prevented
